Source: publication PMC3763810

Legend:
[1] = target: growth hormone secretagogue receptor (GHS-R1a) (UniProt Q92847)
[2] = target: ghrelin O-acyltransferase (GOAT) with a C-terminal 3xFlag tag (mouse) (UniProt P0C7A3)
Sequence of UniProt P0C7A3 (P0C7A3 whole entry): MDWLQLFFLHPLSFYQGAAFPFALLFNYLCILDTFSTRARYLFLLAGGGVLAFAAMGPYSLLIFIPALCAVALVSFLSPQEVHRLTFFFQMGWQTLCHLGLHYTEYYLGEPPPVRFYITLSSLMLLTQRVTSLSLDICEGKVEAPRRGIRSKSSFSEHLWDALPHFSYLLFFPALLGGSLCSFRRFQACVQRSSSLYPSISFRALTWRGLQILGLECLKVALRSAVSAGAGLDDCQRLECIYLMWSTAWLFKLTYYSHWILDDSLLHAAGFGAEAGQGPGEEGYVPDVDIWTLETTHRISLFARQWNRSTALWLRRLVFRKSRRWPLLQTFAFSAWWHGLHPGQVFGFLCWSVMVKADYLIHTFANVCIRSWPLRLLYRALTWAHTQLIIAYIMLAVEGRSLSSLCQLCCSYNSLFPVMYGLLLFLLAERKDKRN

Sequence of UniProt Q92847 (Q92847 whole entry): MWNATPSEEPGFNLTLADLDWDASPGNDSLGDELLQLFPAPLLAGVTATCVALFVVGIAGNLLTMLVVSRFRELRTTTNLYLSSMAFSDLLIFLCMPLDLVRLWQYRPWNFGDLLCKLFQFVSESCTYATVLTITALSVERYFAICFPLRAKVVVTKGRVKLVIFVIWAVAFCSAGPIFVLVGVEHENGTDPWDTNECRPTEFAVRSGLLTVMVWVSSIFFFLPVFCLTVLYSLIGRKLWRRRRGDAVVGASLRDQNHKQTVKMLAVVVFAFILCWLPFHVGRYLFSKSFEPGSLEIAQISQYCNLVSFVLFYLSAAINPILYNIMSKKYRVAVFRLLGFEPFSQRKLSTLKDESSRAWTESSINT

| Substance | EC50 in the GHS-R1a assay (stably transfected HEK-293T-GHS-R1a cells) [1] | inhibition of ghrelin acylation in cells, compounds used at 6 μM [2] |
| --- | --- | --- |
| Amide ghrelin (Ser3 Dap-Octanoyl-Amide) (peptide) | 19 nM | – |
| GO-CoA-Tat (peptide) | > 10000 nM | 75% |
| GO-Tat (peptide) | 23 nM | – |
| Ghrelin28-Oct-CoA (peptide) | 270 nM | – |

Further lines, with some results ahead:

| EC50 in the GHS-R1a assay (stably transfected HEK-293T-GHS-R1a cells) [1] | Substance | inhibition of ghrelin acylation in cells, compounds used at 6 μM [2] |
| --- | --- | --- |
| 18 nM | Acyl ghrelin (peptide) | – |
| > 10000 nM | Des-acyl ghrelin (peptide) | – |
